These results are taken from paper PMC13038408 (Nature Chemical Biology, 2025).

Holding throughout (test): SPR
Holding throughout (settings): both partners purified

In one test the target is T1, RSVF-multi-4 (synthetic construct (de novo design)).
T1 construct: also called RSVF-multi-4 WT; source: E. coli BL21 (DE3), purified (Ni-NTA, SEC)
T1 chain: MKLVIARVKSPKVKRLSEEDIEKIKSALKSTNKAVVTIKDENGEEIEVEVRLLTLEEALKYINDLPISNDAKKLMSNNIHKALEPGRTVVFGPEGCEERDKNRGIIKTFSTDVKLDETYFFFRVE

The next test concerns the target T2, RSVF-multi-3 (de novo design (synthetic)).
T2 construct: source: E. coli BL21 (DE3), purified (Ni-NTA, SEC)
T2 chain: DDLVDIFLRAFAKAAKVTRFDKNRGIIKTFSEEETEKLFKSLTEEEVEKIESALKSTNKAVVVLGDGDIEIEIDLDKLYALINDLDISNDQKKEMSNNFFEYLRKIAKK

Another test has as its target T3, RSVFV-4 (de novo design (synthetic)).
T3 construct: source: E. coli BL21 (DE3), purified (Ni-NTA, SEC)
T3 chain: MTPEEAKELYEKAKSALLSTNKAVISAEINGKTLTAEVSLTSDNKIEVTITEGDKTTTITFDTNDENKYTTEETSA

Another test addresses T4, RSVFV-2 (de novo design (synthetic)).
T4 construct: source: E. coli BL21 (DE3), purified (Ni-NTA, SEC)
T4 chain: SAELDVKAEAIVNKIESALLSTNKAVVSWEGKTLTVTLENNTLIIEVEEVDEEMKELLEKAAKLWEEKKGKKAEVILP

The target of the next test is T5, RSVFV-3 (de novo design (synthetic)).
T5 construct: source: E. coli BL21 (DE3), purified (Ni-NTA, SEC)
T5 chain: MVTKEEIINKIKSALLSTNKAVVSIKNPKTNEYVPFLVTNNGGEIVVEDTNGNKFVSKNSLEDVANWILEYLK

In another test the target is T6, RSVFV-1 (synthetic construct (de novo scaffold …)).
T6 construct: also called RSVF-V H6; source: E. coli BL21 (DE3), purified (Ni-NTA, SEC)
T6 chain: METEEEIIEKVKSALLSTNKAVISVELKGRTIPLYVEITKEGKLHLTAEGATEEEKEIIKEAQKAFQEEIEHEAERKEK

B1: Motavizumab IgG (antibody, V domains shown)
VH: QVTLRESGPALVKPTQTLTLTCTFSGFSLSTAGMSVGWIRQPPGKALEWLADIWWDDKKHYNPSLKDRLTISKDTSKNQVVLKVTNMDPADTATYYCARDMIFNFYFDVWGQGTTVTVSS
VL: DIQMTQSPSTLSASVGDRVTITCSASSRVGYMHWYQQKPGKAPKLLIYDTSKLASGVPSRFSGSGSGTEFTLTISSLQPDDFATYYCFQGSGYPFTFGGGTKVEIK
notes: also called site-II-specific antibody
For the molecule B1, the dissociation constant Kd came out at 14 nM in the test with RSVF-multi-4 and 18 nM with RSVF-multi-3.

B2: RSV90 Fab (Fab, V domains shown)
VH: EVQLVESGGGLVQPRRSLRLSCAASGFTFDDYTIHWVRQAPGKGLEWVSGITWNSGYIGYADSVKGRFTISRDNARNSLYLQMNSLRAEDTALYYCVRDAYVSGSDYYYYGLDVWGRGTLVTVSS
VL: EIVMTSSPATLSVSPGERVTLFCRASQSVISNLAWYQQKSGQAPRLLIYGASTRATGIPSRFSGSGSGTEFTLTISSLQSEDFAVYFCQQYNNWPLTFGGGTQVNVQ
notes: also called hRSV90; site-V-specific antibody
For the molecule B2, the Kd came to 241 nM with RSVFV-4, 108 nM with RSVFV-2, 94 nM with RSVFV-3 and 54 nM with RSVFV-1.

The term Kd denotes the concentration at which binding is half-saturated.
